Reference: patent publication US20250019435A1 (ALBERT EINSTEIN COLLEGE OF MEDICINE, published 2025)

Experiments:
Assay in all cases: flow cytometry, transduced primary NK cells
Y298F/Y328F = target: T1, Y298F/Y328F
T1 construct: also called KIR2DL5 Y298F/Y328F (ITIM and ITSM mutant) on transduced primary NK cells
Experimental: (§1) The KIR2DL5⁻ primary NK cells were transduced with WT KIR2DL5 or the indicated mutants, and then examined for protein expression with F8B30 (open) or mIgG1 (shaded). NC, negative control. Data are representative of 2 independent experiments. (B and C) Transduced primary NK cells were treated with (+) or without (−) pervanadate (VO₄) for 5 minutes. Cell lysates were immunoprecipitated with anti-KIR2DL5 antibodies. Phospho-tyrosine (4G10), SHP-1, SHP-2, and total KIR2DL5 were detected by immunoblots (B). Quantification of p-Tyr, SHP-1, and SHP-2 association with WT or mutant KIR2DL5 in VO₄-treated NK cells (C). WCL, whole-cell lysates. (D) Representative imaging of cell conjugates acquired upon the indicated transduced primary NK and PVR/Raji cell contact followed by staining with anti-KIR2DL5 mAb and DAPI. Scale bars: […]. (E) Lysis of scramble control or PVR^KO A427 (top) and Jurkat (bottom) by WT or mutant KIR2DL5-transduced primary NK cells at the indicated E/T ratios. Data are mean for duplicate measurements and representative of 3 independent experiments with 3 different donors. In A, and B, data are representative of 3 independent experiments. *P<0.05, **P<0.01, ***P<0.001, ****P<0.0001, by 1-way ANOVA (C), or paired Student's t test (D).
(§2) Primary NK cell transduction. KIR2DL5 wild type and variants of ITIM/ITSM expressed on the surface of KIR2DL5⁻ primary NK cells were introduced by lentiviral transduction. Lentivirus was produced in HEK293T cells cotransfected with psPAX, pMD2.G, and a lentiviral backbone pSin vector (a gift from the Alec Zhang laboratory, Department of Physiology, University of Texas Southwestern Medical Center, Dallas, Texas, USA) containing the full-length gene sequence of KIR2DL5A*001 using jetPRIME reagents (Polyplus Transfection). Virus-containing supernatant was harvested 48-72 hours after transfection and filtered through a 0.45 µm filter. Non-tissue-culture-treated plates were coated with retronectin, and virus supernatant was then incubated on the surface of plates at 2,000 g for 120 minutes at 37° C. […]

Y298F = target: T2, Y298F
T2 construct: also called KIR2DL5 Y298F (ITIM mutant) on transduced primary NK cells
T2 sequence (receptor chain, as listed by the source Y298F Y298F limits assumed): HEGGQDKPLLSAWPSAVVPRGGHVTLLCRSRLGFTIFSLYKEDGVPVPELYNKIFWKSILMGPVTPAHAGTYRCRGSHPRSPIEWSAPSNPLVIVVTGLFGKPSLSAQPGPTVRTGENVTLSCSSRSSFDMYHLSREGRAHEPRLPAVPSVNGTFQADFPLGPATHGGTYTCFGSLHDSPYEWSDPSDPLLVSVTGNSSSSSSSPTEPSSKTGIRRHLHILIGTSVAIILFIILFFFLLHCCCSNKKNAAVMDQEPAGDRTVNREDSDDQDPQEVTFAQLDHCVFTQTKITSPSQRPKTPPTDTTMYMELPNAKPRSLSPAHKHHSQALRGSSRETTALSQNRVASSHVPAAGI
Experimental: as §1, §2

Y328F = target: T3, Y328F
T3 construct: also called KIR2DL5 Y328F (ITSM mutant) on transduced primary NK cells
T3 sequence (receptor chain, as listed by the source Y328F Y328F limits assumed): as the sequence (receptor chain, as listed by the source Y298F Y298F limits assumed) above, with F277Y, Y307F counted along it
Experimental: as §1, §2

Measured: binding result

T1 sequence (receptor chain, as listed by the source Y298F Y328F Y298F Y328F limits assumed): as the sequence (receptor chain, as listed by the source Y298F Y298F limits assumed) above, with Y307F counted along it

B1: anti-KIR2DL5 mAb clone F8B30 (antibody, V domains shown)
VH: QIQLVQSGPELKKPGETVKISCKASGYTFTDYSMHWVKQAPGKGLKWMGWINTETGGPTYADDFKGRFAFSLETSATTAYLQINNLKNEDTATYFCSRDVDLYFDYWGQGTTLTVS
VL: DIQMTQSPASLSASVGETVTITCRTSENIYSYLAWYQQKQGKSPQLLVYNAKTLVEGVPSRFSGSGSGTQFSVKINSLQPEDFGNYYCQHHYGIPFTFGGGTKLEIK
notes: also called F8B30 (IgG1, κ)
binds: all assays above
